Measured values from US20180057595A1 (CELLDEX THERAPEUTICS, published 2018).
Blank lines part the entries; values can stand above or below the molecule they belong to.

Key:
[1] = target: MET without the 47 amino acids encoded by exon 14 (H596 cells) (human) (UniProt P08581); assay: cell-based or functional assay
[2] = target: human MET, cell-surface expressed (human, UniProt P08581 25-1390); assay: cell-based or functional assay
[3] = target: T1, murine MET-ECD (murine, UniProt P16056 25-931); assay: ELISA on coated murine MET-ECD
T1 construct: extracellular domain; also called mouse cMET ECD
Experimental: To measure antibody binding by ELISA, 10 μg of human, murine or chimeric MET-ECD was coated onto 96-well plates (Costar). Serial dilutions of antibodies were added to the plates and incubated at room temperature for 1 hr prior to the addition of HRP-conjugated secondary antibody. Luminescence was measured with BioTek SYNERGY™ HT plate reader, and binding EC₅₀ values were determined using […] PRISM® software.

[4] = target: T2, hMET R331K/S336N (human, UniProt P08581 25-1390); assay: flow cytometry on transfected CHO cells (ND = not detectable)
T2 construct: whole, on cells; also called human to canine
Experimental: (§1) This surface-exposed cluster in the human MET (hMET) protein was replaced with corresponding amino acids from canine or murine MET. hMET mutants were then transfected into CHO cells and antibody binding affinity was measured by flow cytometry.

[5] = target: T3, hMET Q328H/R331K/S336N (human, UniProt P08581 25-1390); assay: as above
T3 construct: whole, on cells; also called human to canine
Experimental: as §1

[6] = target: T4, hMET R331K/L337P (human, UniProt P08581 25-1390); assay: as above
T4 construct: whole, on cells; also called human to murine
Experimental: as §1

[7] = target: T5, hMET Q328N/R331K/L337P/N338S (human, UniProt P08581 25-1390); assay: as above
T5 construct: whole, on cells; also called human to murine
Experimental: as §1

[8] = target: T6, mouse MET on MS1 cells (mouse, UniProt P16056 25-1379); assay: FACS, serial dilutions of Alexa647-labelled antibody on MS1 cells
T6 construct: whole, on cells; also called Murine (MS1)
Experimental: (§2) To measure antibody binding affinities against cell surface receptor, antibodies were labeled with the Alexa647 antibody labeling kit and purified per manufacturer's instruction (Invitrogen). A549 (human), 4MBr5 (monkey), MDCK (canine), and MS1 (murine) cells were resuspended in pre-chilled FACS buffer, incubated on ice for 1 hr and distributed to 96-well plates at 10⁵ cell/well. Serial dilutions of labeled antibodies were added to each well and incubated on ice for 4 hrs to allow antibody binding to reach equilibrium. Mean fluorescence intensity was analyzed using a FACS reader (ACCURI™-C6; BD Biosciences), and apparent binding affinities were determined using […] PRISM® software.

[9] = target: T7, dog MET on MDCK cells (dog, UniProt Q75ZY9 25-1382); assay: FACS, serial dilutions of Alexa647-labelled antibody on MDCK cells
T7 construct: whole, on cells; also called Canine (MDCK)
Experimental: as §2

T1 sequence (P16056 25-931): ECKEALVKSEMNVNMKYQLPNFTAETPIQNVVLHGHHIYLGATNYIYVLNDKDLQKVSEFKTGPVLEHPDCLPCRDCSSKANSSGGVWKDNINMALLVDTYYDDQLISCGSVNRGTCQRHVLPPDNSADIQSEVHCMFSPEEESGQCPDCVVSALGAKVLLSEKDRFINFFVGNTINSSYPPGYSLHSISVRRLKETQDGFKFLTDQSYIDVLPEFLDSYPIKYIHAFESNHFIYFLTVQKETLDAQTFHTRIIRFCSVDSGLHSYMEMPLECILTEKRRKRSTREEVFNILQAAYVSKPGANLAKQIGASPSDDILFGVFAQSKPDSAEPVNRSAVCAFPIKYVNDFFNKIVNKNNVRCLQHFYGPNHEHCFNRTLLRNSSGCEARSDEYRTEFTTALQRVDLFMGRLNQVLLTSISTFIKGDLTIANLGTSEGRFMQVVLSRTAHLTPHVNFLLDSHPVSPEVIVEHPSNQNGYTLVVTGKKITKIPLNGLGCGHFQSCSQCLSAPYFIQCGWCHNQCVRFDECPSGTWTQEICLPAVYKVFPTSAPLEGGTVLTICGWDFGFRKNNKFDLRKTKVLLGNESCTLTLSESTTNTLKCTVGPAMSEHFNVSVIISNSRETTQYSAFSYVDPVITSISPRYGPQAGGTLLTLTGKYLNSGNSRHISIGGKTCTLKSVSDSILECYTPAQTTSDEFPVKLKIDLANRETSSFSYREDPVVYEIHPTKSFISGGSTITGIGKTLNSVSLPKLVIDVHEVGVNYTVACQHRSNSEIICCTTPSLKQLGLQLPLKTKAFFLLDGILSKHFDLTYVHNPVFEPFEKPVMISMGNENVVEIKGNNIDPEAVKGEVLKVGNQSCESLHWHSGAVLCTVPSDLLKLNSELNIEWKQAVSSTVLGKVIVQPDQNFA
T7 sequence (Q75ZY9 25-1382): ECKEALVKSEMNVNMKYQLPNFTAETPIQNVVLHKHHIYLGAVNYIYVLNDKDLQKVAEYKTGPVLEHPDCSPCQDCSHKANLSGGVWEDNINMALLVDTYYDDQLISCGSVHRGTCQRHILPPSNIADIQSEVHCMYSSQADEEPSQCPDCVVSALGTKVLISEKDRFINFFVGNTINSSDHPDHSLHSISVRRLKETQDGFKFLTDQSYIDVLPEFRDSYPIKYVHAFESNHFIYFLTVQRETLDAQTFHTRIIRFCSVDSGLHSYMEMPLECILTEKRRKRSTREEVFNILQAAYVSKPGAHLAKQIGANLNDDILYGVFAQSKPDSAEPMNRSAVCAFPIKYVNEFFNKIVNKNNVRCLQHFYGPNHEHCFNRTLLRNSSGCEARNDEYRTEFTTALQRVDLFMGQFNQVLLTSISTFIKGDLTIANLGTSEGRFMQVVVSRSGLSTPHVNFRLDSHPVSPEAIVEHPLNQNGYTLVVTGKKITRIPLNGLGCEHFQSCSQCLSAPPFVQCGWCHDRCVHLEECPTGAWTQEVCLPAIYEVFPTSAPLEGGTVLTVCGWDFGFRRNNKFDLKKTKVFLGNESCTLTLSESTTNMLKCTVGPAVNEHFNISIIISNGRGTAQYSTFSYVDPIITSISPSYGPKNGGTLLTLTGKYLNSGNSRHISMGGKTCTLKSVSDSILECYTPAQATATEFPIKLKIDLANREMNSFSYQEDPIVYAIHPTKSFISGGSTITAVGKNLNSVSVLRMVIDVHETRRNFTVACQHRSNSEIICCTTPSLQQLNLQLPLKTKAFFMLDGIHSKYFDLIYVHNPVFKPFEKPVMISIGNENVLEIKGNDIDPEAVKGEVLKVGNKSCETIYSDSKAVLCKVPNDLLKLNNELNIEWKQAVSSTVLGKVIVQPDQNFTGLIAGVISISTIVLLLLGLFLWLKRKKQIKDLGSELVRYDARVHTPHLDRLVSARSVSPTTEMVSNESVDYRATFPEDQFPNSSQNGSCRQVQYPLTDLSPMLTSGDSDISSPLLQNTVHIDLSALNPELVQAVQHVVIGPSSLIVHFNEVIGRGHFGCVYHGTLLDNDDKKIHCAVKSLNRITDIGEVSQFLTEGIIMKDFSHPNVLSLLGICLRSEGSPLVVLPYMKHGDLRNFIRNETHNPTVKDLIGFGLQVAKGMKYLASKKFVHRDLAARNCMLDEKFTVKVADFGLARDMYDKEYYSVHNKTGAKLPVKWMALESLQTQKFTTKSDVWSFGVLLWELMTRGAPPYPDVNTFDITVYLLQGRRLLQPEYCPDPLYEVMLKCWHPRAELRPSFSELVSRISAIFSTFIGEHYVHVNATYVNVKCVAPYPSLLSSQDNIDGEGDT
T6 sequence (P16056 25-1379): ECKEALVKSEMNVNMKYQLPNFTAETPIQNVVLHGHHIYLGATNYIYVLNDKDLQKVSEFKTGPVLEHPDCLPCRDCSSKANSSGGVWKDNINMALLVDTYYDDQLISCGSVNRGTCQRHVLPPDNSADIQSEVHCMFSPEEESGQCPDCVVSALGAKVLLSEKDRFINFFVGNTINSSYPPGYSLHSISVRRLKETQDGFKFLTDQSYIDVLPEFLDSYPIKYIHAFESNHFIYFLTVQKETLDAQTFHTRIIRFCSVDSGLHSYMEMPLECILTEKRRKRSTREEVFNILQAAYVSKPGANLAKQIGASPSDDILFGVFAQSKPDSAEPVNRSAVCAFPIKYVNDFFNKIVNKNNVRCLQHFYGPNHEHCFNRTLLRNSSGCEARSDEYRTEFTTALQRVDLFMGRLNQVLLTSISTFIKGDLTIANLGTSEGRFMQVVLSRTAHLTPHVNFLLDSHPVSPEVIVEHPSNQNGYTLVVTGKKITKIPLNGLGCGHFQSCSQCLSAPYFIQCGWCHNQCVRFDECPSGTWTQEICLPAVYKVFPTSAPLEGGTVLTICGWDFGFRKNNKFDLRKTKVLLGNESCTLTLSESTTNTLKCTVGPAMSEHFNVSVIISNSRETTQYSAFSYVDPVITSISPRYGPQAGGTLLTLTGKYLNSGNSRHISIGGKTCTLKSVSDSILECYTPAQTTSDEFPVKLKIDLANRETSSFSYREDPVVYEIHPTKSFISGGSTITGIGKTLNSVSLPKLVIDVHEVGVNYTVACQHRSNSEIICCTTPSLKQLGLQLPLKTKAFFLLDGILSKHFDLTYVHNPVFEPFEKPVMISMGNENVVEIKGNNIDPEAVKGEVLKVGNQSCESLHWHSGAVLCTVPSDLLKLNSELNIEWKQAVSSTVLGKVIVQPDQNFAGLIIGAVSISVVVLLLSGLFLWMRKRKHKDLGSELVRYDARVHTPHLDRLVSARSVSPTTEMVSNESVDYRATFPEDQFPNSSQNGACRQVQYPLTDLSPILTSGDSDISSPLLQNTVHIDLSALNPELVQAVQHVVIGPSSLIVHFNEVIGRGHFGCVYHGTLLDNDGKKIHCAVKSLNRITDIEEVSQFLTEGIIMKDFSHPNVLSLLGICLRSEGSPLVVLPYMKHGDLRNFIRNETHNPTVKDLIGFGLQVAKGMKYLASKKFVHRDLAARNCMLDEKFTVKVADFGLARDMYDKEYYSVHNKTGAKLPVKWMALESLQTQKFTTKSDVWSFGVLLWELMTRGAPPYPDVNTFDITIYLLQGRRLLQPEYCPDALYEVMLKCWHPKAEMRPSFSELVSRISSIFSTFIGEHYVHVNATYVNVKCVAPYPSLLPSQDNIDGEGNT

Molecule: HGF (from UniProt P14210 32-728) (ligand)
receptor degradation, H596 cells, 1 nM HGF for 24 hrs [1]: 30% | receptor degradation, cell lines expressing wild-type MET such as A549 and U87MG, 1 nM HGF [2]: 80%

B1: Ab238C (antibody, human IgG1, V domains shown)
VH: QVTLKESGPGILQPSQTLSLTCTFSGFSLSTYGMGVAWIRQPSGKDLEWLANIWWDDVNYSNPSLKNRLTISKDTSNNQVFLQITNVDTAETATYYCARIGTSHIVDAWGQGASVTVSA
VL: DIRMTQSPASLSASLGETVNIECLASEDIYSDLAWYQQKPGKSPQLLIYNANTLQNGVPSVFSGSGSGTQYSLKINNLHSEDVATYFCQQYNNYPPTFGGGTKLEIKR
maximal percent induction of MET degradation in SNU-5 cells [2]: 39% | percent inhibition of MET phosphorylation in SNU-5 cells [2]: 19%

B2: Ab238C-IgG2 (antibody, V domains shown)
VH: QVTLKESGPGILQPSQTLSLTCTFSGFSLSTYGMGVAWIRQPSGKDLEWLANIWWDDVNYSNPSLKNRLTISKDTSNNQVFLQITNVDTAETATYYCARIGTSHIVDAWGQGASVTVSA
VL: DIRMTQSPASLSASLGETVNIECLASEDIYSDLAWYQQKPGKSPQLLIYNANTLQNGVPSVFSGSGSGTQYSLKINNLHSEDVATYFCQQYNNYPPTFGGGTKLEIKR
maximal percent induction of MET degradation in SNU-5 cells [2]: 35% | percent inhibition of MET phosphorylation in SNU-5 cells [2]: 24%

B3: Ab238 (antibody, rat IgG2a, V domains shown)
VH: QVTLKESGPGILQPSQTLSLTCTFSGFSLSTYGMGVAWIRQPSGKDLEWLANIWWDDVNYSNPSLKNRLTISKDTSNNQVFLQITNVDTAETATYYCARIGTSHIVDAWGQGASVTVSA
VL: DIRMTQSPASLSASLGETVNIECLASEDIYSDLAWYQQKPGKSPQLLIYNANTLQNGVPSVFSGSGSGTQYSLKINNLHSEDVATYFCQQYNNYPPTFGGGTKLEIKR
notes: Rat IgG2a, kappa
binding result [3]: no binding | binding result [4]: no binding | binding result [5]: no binding | binding result [6]: no binding | binding result [7]: no binding | binding result [8]: no binding | binding result [9]: no binding

B5: Ab236C (antibody, human IgG1, V domains shown)
VH: QAQLQQSGAELMKPGASVKISCKATGYIFSSYWIEWVKQRPGHGLEWIGEILPGSDFIKYSEKFKGKATFTADTSSNTAYMQLSNLTSEDSAVYYCARPSTVPPDCWGQGTTLTVSA
VL: QIVLTQSPAIMSASPGEKVTMTCSASSSVSYMFWYQQKPGSSPRLLIYDTSDLASGVPVRFSGSGSGTSYSLTISRMEAEDAATYYCQQWSNYPYTFGGGTKLEIKR
maximal percent induction of MET degradation in SNU-5 cells [2]: 19% | percent inhibition of MET phosphorylation in SNU-5 cells [2]: 17%

B7: Ab235 (antibody, mouse IgG1, V domains shown)
VH: QVQLQQSGAELMKPGASVKISCKATGYTFSNYWIEWVKQRPGHGLEWIGEILPGSDYTKYNEKFKGKATFTADTSSNTAYMQLSSLTSEDSAVYYCARPSTIPPDCWGQGTTLTVSA
VL: QIVLTQSPAIMSTSPGEKVTMTCSASSSVNYMFWYQQKAGSSPRLLIYDTFNLASGVPVRFSGSGSGTSYSLTISRMEAEDAATYYCQQWSIYPYTFGGGTKLEIKR
notes: Mouse IgG1, kappa
binding result [3]: no binding | binding result [8]: no binding | binding result [9]: no binding

B8: Ab236 (antibody, mouse IgG1, V domains shown)
VH: QAQLQQSGAELMKPGASVKISCKATGYIFSSYWIEWVKQRPGHGLEWIGEILPGSDFIKYSEKFKGKATFTADTSSNTAYMQLSNLTSEDSAVYYCARPSTVPPDCWGQGTTLTVSA
VL: QIVLTQSPAIMSASPGEKVTMTCSASSSVSYMFWYQQKPGSSPRLLIYDTSDLASGVPVRFSGSGSGTSYSLTISRMEAEDAATYYCQQWSNYPYTFGGGTKLEIKR
notes: Mouse IgG1, kappa
binding result [3]: no binding | binding result [8]: no binding | binding result [9]: no binding

B11: Ab239C-IgG2 (antibody, V domains shown)
VH: EVQLVESGGGLVQPGRSLKLSCAASGFSFTDCYMAWVRQAPTKGLEWVASISSDGGGTYYRDSVKGRFTISRDNARSSLYLEMDSLRSEDTATYYCTTERYYDGTYYGYWYFDFWGPGTMVTVSA
VL: GQFTLTQPKSVSGSLRSTITIPCVRSSGDIGDRYVSWYQQRLGRPPLNVIYAADQRPSEVSDRFSGSIDSSSNSASLTITDLQMDDEADYFCQSYDSNIDIVFGGGTKLEIKR
maximal percent induction of MET degradation in SNU-5 cells [2]: 75% | percent inhibition of MET phosphorylation in SNU-5 cells [2]: 75%

B13: Ab237C-IgG2 (antibody, V domains shown)
VH: EVQLVESGGGLVQPGRSLKLSCAASGFTFSDSYMAWVRQAPTKGLEWVASISSDGGGTYYRDSVKGRFSISRDNAKSSLYLQMDSLRSEDTATYYCTTEGIYTTDYYPYCFNYWGHGVMVTVSA
VL: DIQMTQSPGSLSASLGETVTIECLASADIHSNLAWYQQKPGNSPQLLIYYGNNLNDGVPSRFSGSGSGTQYSLKINSLQSEDVSIYFCQQSYDSPPTFGAGTKLEIKR
maximal percent induction of MET degradation in SNU-5 cells [2]: 81% | percent inhibition of MET phosphorylation in SNU-5 cells [2]: 72%

B14: Ab237 (antibody, rat IgG2a, V domains shown)
VH: EVQLVESGGGLVQPGRSLKLSCAASGFTFSDSYMAWVRQAPTKGLEWVASISSDGGGTYYRDSVKGRFSISRDNAKSSLYLQMDSLRSEDTATYYCTTEGIYTTDYYPYCFNYWGHGVMVTVSA
VL: DIQMTQSPGSLSASLGETVTIECLASADIHSNLAWYQQKPGNSPQLLIYYGNNLNDGVPSRFSGSGSGTQYSLKINSLQSEDVSIYFCQQSYDSPPTFGAGTKLEIKR
notes: Rat IgG2a, kappa
binding result [3]: no binding | binding result [4]: no binding | binding result [5]: no binding | binding result [6]: no binding | binding result [7]: no binding | binding result [8]: no binding | binding result [9]: no binding

Other lines, results leading:

maximal percent induction of MET degradation in SNU-5 cells [2]: 6% | percent inhibition of MET phosphorylation in SNU-5 cells [2]: 10%
B4: Ab235C (antibody, human IgG1, V domains shown)
VH: QVQLQQSGAELMKPGASVKISCKATGYTFSNYWIEWVKQRPGHGLEWIGEILPGSDYTKYNEKFKGKATFTADTSSNTAYMQLSSLTSEDSAVYYCARPSTIPPDCWGQGTTLTVSA
VL: QIVLTQSPAIMSTSPGEKVTMTCSASSSVNYMFWYQQKAGSSPRLLIYDTFNLASGVPVRFSGSGSGTSYSLTISRMEAEDAATYYCQQWSIYPYTFGGGTKLEIKR

maximal percent induction of MET degradation in SNU-5 cells [2]: 69% | percent inhibition of MET phosphorylation in SNU-5 cells [2]: 75%
B6: Ab236C-IgG2 (antibody, V domains shown)
VH: QAQLQQSGAELMKPGASVKISCKATGYIFSSYWIEWVKQRPGHGLEWIGEILPGSDFIKYSEKFKGKATFTADTSSNTAYMQLSNLTSEDSAVYYCARPSTVPPDCWGQGTTLTVSA
VL: QIVLTQSPAIMSASPGEKVTMTCSASSSVSYMFWYQQKPGSSPRLLIYDTSDLASGVPVRFSGSGSGTSYSLTISRMEAEDAATYYCQQWSNYPYTFGGGTKLEIKR

maximal percent induction of MET degradation in SNU-5 cells [2]: 64% | percent inhibition of MET phosphorylation in SNU-5 cells [2]: 64%
B9: Ab235C-IgG2 (antibody, V domains shown)
VH: QVQLQQSGAELMKPGASVKISCKATGYTFSNYWIEWVKQRPGHGLEWIGEILPGSDYTKYNEKFKGKATFTADTSSNTAYMQLSSLTSEDSAVYYCARPSTIPPDCWGQGTTLTVSA
VL: QIVLTQSPAIMSTSPGEKVTMTCSASSSVNYMFWYQQKAGSSPRLLIYDTFNLASGVPVRFSGSGSGTSYSLTISRMEAEDAATYYCQQWSIYPYTFGGGTKLEIKR

maximal percent induction of MET degradation in SNU-5 cells [2]: 36% | percent inhibition of MET phosphorylation in SNU-5 cells [2]: 33%
B10: Ab239C (antibody, human IgG1, V domains shown)
VH: EVQLVESGGGLVQPGRSLKLSCAASGFSFTDCYMAWVRQAPTKGLEWVASISSDGGGTYYRDSVKGRFTISRDNARSSLYLEMDSLRSEDTATYYCTTERYYDGTYYGYWYFDFWGPGTMVTVSA
VL: GQFTLTQPKSVSGSLRSTITIPCVRSSGDIGDRYVSWYQQRLGRPPLNVIYAADQRPSEVSDRFSGSIDSSSNSASLTITDLQMDDEADYFCQSYDSNIDIVFGGGTKLEIKR

binding result [3]: no binding | binding result [8]: no binding | binding result [9]: no binding
B12: Ab239 (antibody, rat IgG2a, V domains shown)
VH: EVQLVESGGGLVQPGRSLKLSCAASGFSFTDCYMAWVRQAPTKGLEWVASISSDGGGTYYRDSVKGRFTISRDNARSSLYLEMDSLRSEDTATYYCTTERYYDGTYYGYWYFDFWGPGTMVTVSA
VL: GQFTLTQPKSVSGSLRSTITIPCVRSSGDIGDRYVSWYQQRLGRPPLNVIYAADQRPSEVSDRFSGSIDSSSNSASLTITDLQMDDEADYFCQSYDSNIDIVFGGGTKLEIKR
notes: Rat IgG2a, lambda
